Tests used:
[1] = molecular target: zebrafish Ngly2 (amino acids: 45-663) (zebrafish (Danio rerio)); assay: SEC; gel filtration at pH 4.0; elution around 150 kDa
[2] = molecular target: zebrafish Ngly2 (amino acids: 45-663) (zebrafish (Danio rerio)); assay: SEC; gel filtration at pH 8.0; Superdex200 increase 10/300 GL, 20 mM Tris-HCl (pH 8.0), 150 mM NaCl; elution around 150 kDa

stoichiometry N [1]: 2
stoichiometry N [2]: 2
Substance: zebrafish Ngly2 (amino acids: 45-663) (enzyme)
